From paper PMC6092318, “Keap1–MCM3 interaction is a potential coordinator of molecular machineries of antioxidant response and genomic DNA replication in metazoa” (Scientific Reports, 2018)

B1: FLAG-MCM3 (mouse, wild type, baculovirus) (natural protein, UniProt P25206 1-812, looked up)
chain: MAGTVVLDDVELREAQRDYLDFLDDEEDQGIYQNKVRELISDNQYRLIVSVNDLRRKNEKRANRLLNNAFEELVAFQRALKDFVASIDATYAKQYEEFYIGLEGSFGSKHVSPRTLTSCFLSCVVCVEGIVTKCSLVRPKVVRSVHYCPATKKTIERRYSDLTTLVAFPSSSVYPTKDEENNPLETEYGLSVYKDHQTITIQEMPEKAPAGQLPRSVDVILDDDLVDKVKPGDRIQVVGTYRCLPGKKGCYTSGTFRTVLIACNVKQMSKDIQPAFSADDIAKIKKFSKTRSKDVFEQLARSLAPSIHGHDYVKKAILCLLLGGVERELENGSHIRGDINILLIGDPSVAKSQLLRYVLCTAPRAIPTTGRGSSGVGLTAAVTTDQETGERRLEAGAMVLADRGVVCIDEFDKMSDMDRTAIHEVMEQGRVTIAKAGIHARLNARCSVLAAANPVYGRYDQYKTPMENIGLQDSLLSRFDLLFIMLDQMDPEQDREISDHVLRMHQYRAPGEQDGDALPLGSSVDILATDDPDFTQDDQQDTRIYEKHDSLLHGTKKKKEKMVSAAFMKKYIHVAKIIKPTLTQESAAYIAEEYSRLRSQDSMSSDTARTSPVTARTLETLIRLATAHAKARMSKTVDLQDAEEAVELVQYAYFKKVLEKEKKRKKASEDESDLEDEEEKSQEDTEQKRKRRKTHAKDGESYDPYDFSEAETQMPQVHTPKTDDSQEKTDDSQETQDSQKVELSEPRLKAFKAALLEVFQEAHEQSVGMLHLTESINRNREEPFSSEEIQACLSRMQDDNQVMVSEGIVFLI
notes: MCM3, mouse; cDNA cloned into pFastBac1; also called WT MCM3; source: Sf9, baculovirus infected, in extract; not shown: FLAG, N-terminal, kept
B2: HA-MCM-BP (mouse, baculovirus) (natural protein, UniProt Q8R3C0 1-642, looked up)
chain: MPCGEDWLSHPLGIVQGFFAQNGVNPDWEKKVIEYFKEKLKENNAPKWVPSLNEVPLHYLKPNSFVKFRCMIQDMFDPEFYMGIYETVNQNTKARVLHFGKYRDVAECGPQQELDLSSPRSTTSERQTFYCVPVPGESSWVKEAYVNANQARVSPSTSYTPSRHKRSYEDDEDMDLQPSKQKEQHPGSRQAGGLGGLHWCGEPKRLETEASSGQQLNTLNLSSPFDLNFPLPGEKGPACLVKVYEDWDCFKVNDVLELYGVLSVDPVLSVLNSEERDASALLDPMECTDMAEEQRVHSPPASLVPRIHVILAQKLQHINPLLPTCLNKEESRSCQFVSNFMSELSPVRAELLGFLTHALLGDSLAAEYLILHLISTVYTRRDVLPLGKFTVNLSGCPQNSTFTEHLYRIIQHLVPASFRLQMTIENMNQLKLIPHKDYTANRLVSGLLQLPNNTSLVIDETLLEQGQLDTPGVHNVTALSNLITWQKVDYDFSYHQMEFPCNINVLITSEGRSLLPADCQIHLQPQLIPPNMEEYMNGLLSAVLPSVLNKFRIYLTLLRFLDYNLSDDITKAVEDDFVEMRKDDPQSITADDLHQLLVVARFLSLSVGQTTLSRERWLRAKQLELSRKARLQQQKSVNGNEL
notes: MCM-BP, mouse; cDNA cloned into pFastBac1; source: Sf9, baculovirus infected, in extract

How the values were obtained:
[1] = biological target: FLAG-MCM3 (mouse MCM3 expressed in CHO-EBNALT85 cells) (mouse) (UniProt P25206); assay: co-IP; anti-FLAG M2 beads on whole cell, nuclear and cytoplasmic extracts of FLAG-MCM3 expressing CHOEBNALT85 cells, 150 mM KCl, Western blot
[2] = biological target: T1, strep-Keap1 (mouse, wild type, baculovirus) (mouse, UniProt Q9Z2X8 1-624); assay: SEC; Superose 6 10/300 GL of the strep-Keap1 - FLAG-MCM3 tandem purified complex, 100 mM KCl buffer; densitometry of the Coomassie stained gel; conditions: partners not purified
T1 construct: Keap1, mouse; cDNA cloned into pFastBac1; also called strep tagged Keap1; strp-Keap1; source: Sf9, baculovirus infected, in extract; not shown: Strep-tag II, N-terminal, kept

[3] = biological target: B1; assay: as above; conditions: partners not purified

T1 sequence (Q9Z2X8 whole entry): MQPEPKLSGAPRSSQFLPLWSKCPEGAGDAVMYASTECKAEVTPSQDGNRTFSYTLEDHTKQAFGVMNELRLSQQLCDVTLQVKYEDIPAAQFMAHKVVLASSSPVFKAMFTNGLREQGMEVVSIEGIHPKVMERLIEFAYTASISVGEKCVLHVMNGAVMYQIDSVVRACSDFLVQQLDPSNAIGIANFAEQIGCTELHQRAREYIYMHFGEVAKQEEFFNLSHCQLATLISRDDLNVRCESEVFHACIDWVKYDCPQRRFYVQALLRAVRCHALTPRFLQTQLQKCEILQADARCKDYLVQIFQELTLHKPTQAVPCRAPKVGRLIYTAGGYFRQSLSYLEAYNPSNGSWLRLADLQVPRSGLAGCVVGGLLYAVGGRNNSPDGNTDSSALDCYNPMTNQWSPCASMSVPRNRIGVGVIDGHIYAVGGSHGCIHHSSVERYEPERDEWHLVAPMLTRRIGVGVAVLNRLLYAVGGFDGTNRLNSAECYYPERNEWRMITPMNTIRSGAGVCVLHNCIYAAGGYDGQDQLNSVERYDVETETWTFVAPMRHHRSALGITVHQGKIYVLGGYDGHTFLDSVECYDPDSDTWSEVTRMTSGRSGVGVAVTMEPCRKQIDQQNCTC

Molecule: Keap1 (endogenous, CHO cells) (natural protein)
- percent of soluble MCM3 and Keap1 pulled down together [1]: 5 to 10%

Molecule: B1
- stoichiometry N [2]: ~1

Molecule: B2
- stoichiometry N [3]: ~1
